Source: patent US20210340548A1

Tests used:
Assay in all cases: cell-based or functional assay
[1] = biological target: Cry2 PHR (L348F)-p65 AD (Arabidopsis thaliana; human) (UniProt Q96524)
[2] = biological target: Cry2 PHR (L348F)-p65 AD-NLSx2
[3] = biological target: p65 AD-Cry2 PHR (L348F) (human; Arabidopsis thaliana) (UniProt Q04206)
[4] = biological target: Cry2 PHR-p65 AD-NLSx2 (Arabidopsis thaliana; human)
[5] = biological target: p65 AD-Cry2 PHR (human; Arabidopsis thaliana) (UniProt Q04206)
[6] = biological target: p65 AD-Cry2 535 (L348F) (human; Arabidopsis thaliana) (UniProt Q04206)
[7] = biological target: NLSx2-p65 AD-Cry2 PHR (L348F) (human; Arabidopsis thaliana)
[8] = biological target: Cry2 PHR-p65 AD (Arabidopsis thaliana; human) (UniProt Q96524)
[9] = biological target: p65 AD-Cry2 535 (human; Arabidopsis thaliana) (UniProt Q04206)
[10] = biological target: NLSx2-p65 AD-Cry2 PHR (human; Arabidopsis thaliana)

| Substance | Average of the Light/Dark ratio [1] | Light/Dark [1] | Ub-ELuc luciferase, Dark [1] [relative] | Ub-ELuc luciferase, Light [1] [relative] | Average of the Light/Dark ratio [2] | Light/Dark [2] | Ub-ELuc luciferase, Dark [2] [relative] | Ub-ELuc luciferase, Light [2] [relative] | Average of the Light/Dark ratio [3] | Light/Dark [3] | Ub-ELuc luciferase, Dark [3] [relative] | Ub-ELuc luciferase, Light [3] [relative] | Average of the Light/Dark ratio [4] | Light/Dark [4] | Ub-ELuc luciferase, Dark [4] [relative] | Ub-ELuc luciferase, Light [4] [relative] | Average of the Light/Dark ratio [5] | Light/Dark [5] | Ub-ELuc luciferase, Dark [5] [relative] | Ub-ELuc luciferase, Light [5] [relative] | further results |
| --- | --- | --- | --- | --- | --- | --- | --- | --- | --- | --- | --- | --- | --- | --- | --- | --- | --- | --- | --- | --- | --- |
| TetR (I194T, 1-206)-SPKKK-CIB1 full | 1.6 | 1.6 | 2.7 | 4.3 | 1 | 1.4 | 5.1 | 6.8 | 1.7 | 2.2 | 8.3 | 17.2 | 0.9 | 0.8 | 20.1 | 16.6 | 1.6 | 1.6 | 13.8 | 20.7 | Average of the Light/Dark ratio [6]: 2; Light/Dark [6]: 2.3; Ub-ELuc luciferase, Dark [6]: 4.8 relative; Ub-ELuc luciferase, Light [6]: 10.5 relative; Average of the Light/Dark ratio [7]: 1.7; Light/Dark [7]: 1.8; Ub-ELuc luciferase, Dark [7]: 19.3 relative; Ub-ELuc luciferase, Light [7]: 34.3 relative; Average of the Light/Dark ratio [8]: 1.5; Light/Dark [8]: 1.7; Ub-ELuc luciferase, Dark [8]: 2.4 relative; Ub-ELuc luciferase, Light [8]: 4.1 relative; Average of the Light/Dark ratio [9]: 2.1; Light/Dark [9]: 2.1; Ub-ELuc luciferase, Dark [9]: 4.3 relative; Ub-ELuc luciferase, Light [9]: 8.7 relative; Average of the Light/Dark ratio [10]: 1.9; Light/Dark [10]: 2.4; Ub-ELuc luciferase, Dark [10]: 21.9 relative; Ub-ELuc luciferase, Light [10]: 50.9 relative |
| TetR (I194T, 1-206)-SPKKK-CIB1 full no NLS | 1.2 | 1.5 | 4.8 | 7.2 | 0.9 | 1.2 | 11.3 | 12.4 | 1.4 | 1.6 | 33 | 47.9 | 0.9 | 0.9 | 30.1 | 25.2 | 1.5 | 2 | 36.2 | 65.2 | Average of the Light/Dark ratio [6]: 2; Light/Dark [6]: 2.7; Ub-ELuc luciferase, Dark [6]: 9.3 relative; Ub-ELuc luciferase, Light [6]: 23.9 relative; Average of the Light/Dark ratio [7]: 1.4; Light/Dark [7]: 1.9; Ub-ELuc luciferase, Dark [7]: 50.2 relative; Ub-ELuc luciferase, Light [7]: 86.8 relative; Average of the Light/Dark ratio [8]: 1.4; Light/Dark [8]: 2; Ub-ELuc luciferase, Dark [8]: 3 relative; Ub-ELuc luciferase, Light [8]: 5.4 relative; Average of the Light/Dark ratio [9]: 2; Light/Dark [9]: 3.3; Ub-ELuc luciferase, Dark [9]: 10.4 relative; Ub-ELuc luciferase, Light [9]: 31.8 relative; Average of the Light/Dark ratio [10]: 1.6; Light/Dark [10]: 2.2; Ub-ELuc luciferase, Dark [10]: 56 relative; Ub-ELuc luciferase, Light [10]: 109 relative |
